Experiments:
[1] = molecular target: T1, KIT (recombinant, YEASEN 93764ES80) (UniProt P10721 26-524); assay: SPR; KIT immobilized on CM5 chip; SPR at 25 C, His-KIT on CM5 chip, 50 mM NaOH regeneration; flow cytometry with 250 nM Cy5-aptamer in binding buffer with 1 mg/ml BSA and 1 mM yeast tRNA; salt and pH not given in material; conditions: protein: commercial; tags: His-tag; label: Cy5 in flow cytometry; predicted stem-loop
[2] = molecular target: T1, KIT (recombinant, YEASEN 93764ES80); assay: flow cytometry; KIT coated on aldehyde/sulfate latex beads; SPR at 25 C, His-KIT on CM5 chip, 50 mM NaOH regeneration; flow cytometry with 250 nM Cy5-aptamer in binding buffer with 1 mg/ml BSA and 1 mM yeast tRNA; salt and pH not given in material; conditions: protein: commercial; tags: His-tag; label: Cy5 in flow cytometry; predicted stem-loop

T1 sequence (P10721 26-524): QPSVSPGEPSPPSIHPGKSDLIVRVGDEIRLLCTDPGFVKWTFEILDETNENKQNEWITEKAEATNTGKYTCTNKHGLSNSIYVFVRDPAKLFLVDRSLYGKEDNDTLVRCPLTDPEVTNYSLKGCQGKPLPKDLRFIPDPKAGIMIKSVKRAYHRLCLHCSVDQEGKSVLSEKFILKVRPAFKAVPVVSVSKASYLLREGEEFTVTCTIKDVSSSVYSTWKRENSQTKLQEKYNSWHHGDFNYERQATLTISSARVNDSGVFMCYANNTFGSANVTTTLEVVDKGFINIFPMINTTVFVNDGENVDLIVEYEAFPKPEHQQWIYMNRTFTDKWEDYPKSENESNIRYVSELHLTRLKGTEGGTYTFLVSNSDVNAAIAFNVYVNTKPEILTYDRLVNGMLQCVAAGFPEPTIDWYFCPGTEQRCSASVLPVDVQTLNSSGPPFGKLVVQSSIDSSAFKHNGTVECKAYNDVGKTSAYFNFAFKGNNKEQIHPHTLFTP

Binder	Kd [1] [nM]	Kd [2] [nM]
ATTCAAGGGGCCGGGGCAAGGGGGGGGTACCGTGGTAGGACATAGT (ssDNA) [KIT-d]	71.1	80.2
KIT-w (ssDNA) DNA: GAGGCATACCAGCTTATTCAAGGGGCCGGGGCAAGGGGGGGGTACCGTGGTAGGACATAGTAAGTGCAATCTGCGAA	84	106
